# Assays:
# [1] = RP-HPLC: insulin apparent solubility / percent recovery; conditions: 7 days at 2-8° C.
# Method in brief: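 Vial samples withdrawn at each time point, centrifuged, held at 4 °C, run in duplicate by RP-HPLC. Apparent solubility = combined insulin main and desamido peak areas as percent versus standards/initial formulation; purity = main insulin peak as percent of all insulin species.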
# [2] = cited from earlier work
# [3] = Appearance (visual analysis, illuminator method); format: physicochemical
# Procedure: Appearance of the insulin/rHuPH20 formulations was determined by qualitative visual analysis of the insulin/rHuPH20 solution in a type I glass vial. The evaluation of the coloration and clarity of the solution was determined by comparison to that of USP (or equivalent) sterile water for irrigation (SWFI). The aqueous solution was determined to be clear if its clarity was the same as that of the SWFI. The aqueous solution was determined to be colorless if it had the appearance of the SWFI. Vials were tested at room temperature and care was taken not to cause unnecessary turbulence and/or air bubbles in the solutions while swirling and/or inverting. If necessary, vials were wiped with non-shedding or lint-free wipes and 70% ethanol prior to testing. The procedure was as follows: A directional light source with a 150 W or greater lamp was turned on. The samples were prepared in a hood. Samples to be tested were gently inverted to ensure homogeneity prior to transferring >0.5 mL using aseptic technique to a Type 1 glass vial for testing. A SWFI sample was prepared in the same way. […] Color, clarity and the presence and extent of any visible particles and/or foreign matter were recorded. […]
# In this method, the degree of clarity and coloration of liquids were evaluated to ensure (visually) product quality against the applicable appearance specifications. […]
substance,measurement,setting,value
"regular insulin: mature human insulin, SEQ ID NOS: 103 and 104","Solubility of regular Insulin, % remaining of the original concentration","[1]; 0.2% methylparaben + […] m-cresol, pH 6.6, NaCl 50 mM",15.3%
same,"Solubility of regular Insulin, % remaining of the original concentration","[1]; 0.2% methylparaben + […] m-cresol, pH 6.6, NaCl 80 mM",9.0%
same,"Solubility of regular Insulin, % remaining of the original concentration","[1]; 0.2% methylparaben + […] m-cresol, pH 6.6, NaCl 140 mM",5.8%
same,"Solubility of regular Insulin, % remaining of the original concentration","[1]; 0.2% methylparaben + […] m-cresol, pH 6.8, NaCl 50 mM",34.1%
same,"Solubility of regular Insulin, % remaining of the original concentration","[1]; 0.2% methylparaben + […] m-cresol, pH 6.8, NaCl 110 mM",11.4%
same,"Solubility of regular Insulin, % remaining of the original concentration","[1]; 0.2% methylparaben + […] m-cresol, pH 7.0, NaCl 50 mM",86.9%
same,"Solubility of regular Insulin, % remaining of the original concentration","[1]; 0.2% methylparaben + […] m-cresol, pH 7.0, NaCl 80 mM",46.6%
same,"Solubility of regular Insulin, % remaining of the original concentration","[1]; 0.2% methylparaben + […] m-cresol, pH 7.0, NaCl 140 mM",15.9%
same,"Solubility of regular Insulin, % remaining of the original concentration","[1]; 0.2% methylparaben + […] m-cresol, pH 7.2, NaCl 80 mM",90.6%
same,"Solubility of regular Insulin, % remaining of the original concentration","[1]; 0.2% methylparaben + […] m-cresol, pH 7.2, NaCl 110 mM",47.1%
same,"Solubility of regular Insulin, % remaining of the original concentration","[1]; 0.2% methylparaben + […] m-cresol, pH 7.2, NaCl 140 mM",32.9%
same,"Solubility of regular Insulin, % remaining of the original concentration","[1]; 0.2% methylparaben + […] m-cresol, pH 7.4, NaCl 50 mM",98.1%
same,"Solubility of regular Insulin, % remaining of the original concentration","[1]; 0.2% methylparaben + […] m-cresol, pH 7.4, NaCl 80 mM",97.7%
same,"Solubility of regular Insulin, % remaining of the original concentration","[1]; 0.2% methylparaben + […] m-cresol, pH 7.4, NaCl 110 mM",94.6%
same,"Solubility of regular Insulin, % remaining of the original concentration","[1]; 0.2% methylparaben + […] m-cresol, pH 7.4, NaCl 140 mM",59.1%
same,"Solubility of regular Insulin, % remaining of the original concentration","[1]; 0.2% methylparaben + […] m-cresol, pH 7.6, NaCl 50 mM",98.1%
same,"Solubility of regular Insulin, % remaining of the original concentration","[1]; 0.2% methylparaben + […] m-cresol, pH 7.6, NaCl 80 mM",97.9%
same,"Solubility of regular Insulin, % remaining of the original concentration","[1]; 0.2% methylparaben + […] m-cresol, pH 7.6, NaCl 140 mM",95.4%
same,"Solubility of regular Insulin, % remaining of the original concentration","[1]; 0.2% phenol + […] m-cresol, pH 6.6, NaCl 50 mM",26.8%
same,"Solubility of regular Insulin, % remaining of the original concentration","[1]; 0.2% phenol + […] m-cresol, pH 6.6, NaCl 80 mM",8.7%
same,"Solubility of regular Insulin, % remaining of the original concentration","[1]; 0.2% phenol + […] m-cresol, pH 6.6, NaCl 110 mM",6.5%
same,"Solubility of regular Insulin, % remaining of the original concentration","[1]; 0.2% phenol + […] m-cresol, pH 6.6, NaCl 140 mM",5.8%
same,"Solubility of regular Insulin, % remaining of the original concentration","[1]; 0.2% phenol + […] m-cresol, pH 6.8, NaCl 50 mM",38.4%
same,"Solubility of regular Insulin, % remaining of the original concentration","[1]; 0.2% phenol + […] m-cresol, pH 6.8, NaCl 80 mM",17.1%
same,"Solubility of regular Insulin, % remaining of the original concentration","[1]; 0.2% phenol + […] m-cresol, pH 6.8, NaCl 140 mM",6.5%
same,"Solubility of regular Insulin, % remaining of the original concentration","[1]; 0.2% phenol + […] m-cresol, pH 7.0, NaCl 50 mM",100.3%
same,"Solubility of regular Insulin, % remaining of the original concentration","[1]; 0.2% phenol + […] m-cresol, pH 7.0, NaCl 80 mM",35.7%
same,"Solubility of regular Insulin, % remaining of the original concentration","[1]; 0.2% phenol + […] m-cresol, pH 7.0, NaCl 110 mM",17.7%
same,"Solubility of regular Insulin, % remaining of the original concentration","[1]; 0.2% phenol + […] m-cresol, pH 7.0, NaCl 140 mM",11.6%
same,"Solubility of regular Insulin, % remaining of the original concentration","[1]; 0.2% phenol + […] m-cresol, pH 7.2, NaCl 80 mM",92.2%
same,"Solubility of regular Insulin, % remaining of the original concentration","[1]; 0.2% phenol + […] m-cresol, pH 7.2, NaCl 110 mM",37.4%
same,"Solubility of regular Insulin, % remaining of the original concentration","[1]; 0.2% phenol + […] m-cresol, pH 7.2, NaCl 140 mM",18.9%
same,"Solubility of regular Insulin, % remaining of the original concentration","[1]; 0.2% phenol + […] m-cresol, pH 7.4, NaCl 80 mM",99.2%
same,"Solubility of regular Insulin, % remaining of the original concentration","[1]; 0.2% phenol + […] m-cresol, pH 7.4, NaCl 110 mM",87.8%
same,"Solubility of regular Insulin, % remaining of the original concentration","[1]; 0.2% phenol + […] m-cresol, pH 7.4, NaCl 140 mM",40.6%
same,"Solubility of regular Insulin, % remaining of the original concentration","[1]; 0.2% phenol + […] m-cresol, pH 7.6, NaCl 80 mM",99.2%
same,"Solubility of regular Insulin, % remaining of the original concentration","[1]; 0.2% phenol + […] m-cresol, pH 7.6, NaCl 110 mM",98.5%
same,"Solubility of regular Insulin, % remaining of the original concentration","[1]; 0.2% phenol + […] m-cresol, pH 7.6, NaCl 140 mM",82.2%
same,"Solubility of regular Insulin, % remaining of the original concentration","[1]; […] phenol + […] m-cresol, pH 6.6, NaCl 50 mM",31.2%
same,"Solubility of regular Insulin, % remaining of the original concentration","[1]; […] phenol + […] m-cresol, pH 6.6, NaCl 80 mM",18.6%
same,"Solubility of regular Insulin, % remaining of the original concentration","[1]; […] phenol + […] m-cresol, pH 6.6, NaCl 140 mM",12.9%
same,"Solubility of regular Insulin, % remaining of the original concentration","[1]; […] phenol + […] m-cresol, pH 6.8, NaCl 50 mM",66.6%
same,"Solubility of regular Insulin, % remaining of the original concentration","[1]; […] phenol + […] m-cresol, pH 6.8, NaCl 80 mM",24.9%
same,"Solubility of regular Insulin, % remaining of the original concentration","[1]; […] phenol + […] m-cresol, pH 7.0, NaCl 50 mM",96.7%
same,"Solubility of regular Insulin, % remaining of the original concentration","[1]; […] phenol + […] m-cresol, pH 7.0, NaCl 80 mM",80.8%
same,"Solubility of regular Insulin, % remaining of the original concentration","[1]; […] phenol + […] m-cresol, pH 7.0, NaCl 110 mM",32.9%
same,"Solubility of regular Insulin, % remaining of the original concentration","[1]; […] phenol + […] m-cresol, pH 7.0, NaCl 140 mM",17.1%
same,"Solubility of regular Insulin, % remaining of the original concentration","[1]; […] phenol + […] m-cresol, pH 7.2, NaCl 80 mM",96.4%
same,"Solubility of regular Insulin, % remaining of the original concentration","[1]; […] phenol + […] m-cresol, pH 7.2, NaCl 110 mM",58.7%
same,"Solubility of regular Insulin, % remaining of the original concentration","[1]; […] phenol + […] m-cresol, pH 7.2, NaCl 140 mM",33.1%
same,"Solubility of regular Insulin, % remaining of the original concentration","[1]; […] phenol + […] m-cresol, pH 7.4, NaCl 50 mM",96.7%
same,"Solubility of regular Insulin, % remaining of the original concentration","[1]; […] phenol + […] m-cresol, pH 7.4, NaCl 80 mM",97.3%
same,"Solubility of regular Insulin, % remaining of the original concentration","[1]; […] phenol + […] m-cresol, pH 7.4, NaCl 110 mM",94.2%
same,"Solubility of regular Insulin, % remaining of the original concentration","[1]; […] phenol + […] m-cresol, pH 7.4, NaCl 140 mM",57.9%
same,"Solubility of regular Insulin, % remaining of the original concentration","[1]; […] phenol + […] m-cresol, pH 7.6, NaCl 50 mM",97.2%
same,"Solubility of regular Insulin, % remaining of the original concentration","[1]; […] phenol + […] m-cresol, pH 7.6, NaCl 80 mM",97.1%
same,"Solubility of regular Insulin, % remaining of the original concentration","[1]; […] phenol + […] m-cresol, pH 7.6, NaCl 110 mM",97.1%
same,"Solubility of regular Insulin, % remaining of the original concentration","[1]; […] phenol + […] m-cresol, pH 7.6, NaCl 140 mM",91.7%
same,plasma half-life,[2]; following subcutaneous administration,about 1.5 hours
same,Onset,[2]; in vivo,30 min
same,Peak,[2]; in vivo,1 to 3 h
same,time tested without precipitates,"[3]; NaCl 80 mM or less, pH 7.6",greater than 15 months
same,time to form precipitates,"[3]; NaCl greater than 80 mM, pH 7.0",≤ 1 week

# From US20130011378A1, “Stable formulations of a hyaluronan-degrading enzyme” (priority 2011, published 2013)
